In PMC4089486, “Structural and biochemical analyses of alanine racemase from the multidrug-resistant Clostridium difficile strain 630” (Acta Crystallographica Section D: Biological Crystallography, 2014):

Experiments:
C[C@@H](N)C(=O)O = test: chiral HPLC of alanine enantiomers, initial rates; assay type: biochemical, Clostridioides difficile; details: D-Ala to L-Ala, 50 mM sodium borate pH 8.5, WT preparation partly cleaved at position 271
From the text: (§1) chiral HPLC of alanine enantiomers, initial rates on CdAlr (C. difficile alanine racemase; CdAlrWT)
C[C@H](N)C(=O)O = test: chiral HPLC of alanine enantiomers, initial rates; assay type: biochemical, Clostridioides difficile; details: L-Ala to D-Ala, 50 mM sodium borate pH 8.5, WT preparation partly cleaved at position 271
From the text: as §1

[1] = target: Clostridium difficile strain 630 alanine racemase, recombinant wild type (Clostridium difficile strain 630); test: SEC-MALS

“CdAlr (C. difficile alanine racemase; CdAlrWT) (Clostridioides difficile 630)” was tested, and the Km (C[C@@H](N)C(=O)O) was 7 mM, the Vmax (C[C@@H](N)C(=O)O) was 26.7 µmol/min/mg and the kcat (C[C@@H](N)C(=O)O) was 19.2 s⁻¹. It also gave a Km (C[C@H](N)C(=O)O) of 17.6 mM and a kcat (C[C@H](N)C(=O)O) of 59.3 s⁻¹.
“Clostridium difficile strain 630 alanine racemase, recombinant wild type (from UniProt A0AC59G415 1-385) (enzyme)” gave a stoichiometry N [1] of 2.
